Experimental data from paper PMC5582868, “BLADE-ON-PETIOLE proteins act in an E3 ubiquitin ligase complex to regulate PHYTOCHROME INTERACTING FACTOR 4 abundance” (eLife, 2017).

Key:
His-GST-PIF4 = target: T1, His-GST-PIF4 (Arabidopsis thaliana (Mouse-ear cress), UniProt Q8W2F3); assay: GST pulldown
T1 chain: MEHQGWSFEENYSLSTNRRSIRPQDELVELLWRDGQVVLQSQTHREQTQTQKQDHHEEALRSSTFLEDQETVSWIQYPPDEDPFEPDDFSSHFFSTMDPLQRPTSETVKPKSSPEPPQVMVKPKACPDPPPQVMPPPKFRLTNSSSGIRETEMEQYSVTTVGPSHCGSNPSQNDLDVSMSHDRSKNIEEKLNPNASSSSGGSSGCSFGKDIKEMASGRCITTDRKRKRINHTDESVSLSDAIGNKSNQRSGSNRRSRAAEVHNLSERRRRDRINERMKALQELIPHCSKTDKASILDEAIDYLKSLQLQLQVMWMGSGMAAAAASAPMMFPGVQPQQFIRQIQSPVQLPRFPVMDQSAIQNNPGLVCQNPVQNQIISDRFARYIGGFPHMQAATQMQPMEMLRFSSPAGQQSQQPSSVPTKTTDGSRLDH

His-MBP-BOP2 = target: T2, His-MBP-BOP2 (Arabidopsis thaliana, UniProt Q9ZVC2 1-491); assay: pull-down; 1 µg GST-PIF4 on Glutathione Sepharose 4B beads; 1 µg MBP or MBP-BOP2 added in 300 µl binding buffer (50 mM Tris-Cl pH 7.6, 100 mM NaCl, 1 mM EDTA, 1% Triton X-100, 0.5 mM DTT, 5% glycerol), 4°C, 2 hr; blot with anti-MBP; conditions: both partners purified
T2 construct: BLADE-ON-PETIOLE 2 (BOP2), Arabidopsis thaliana; source: Escherichia coli BL21, purified (Ni-NTA Agarose)
T2 sequence (looked up): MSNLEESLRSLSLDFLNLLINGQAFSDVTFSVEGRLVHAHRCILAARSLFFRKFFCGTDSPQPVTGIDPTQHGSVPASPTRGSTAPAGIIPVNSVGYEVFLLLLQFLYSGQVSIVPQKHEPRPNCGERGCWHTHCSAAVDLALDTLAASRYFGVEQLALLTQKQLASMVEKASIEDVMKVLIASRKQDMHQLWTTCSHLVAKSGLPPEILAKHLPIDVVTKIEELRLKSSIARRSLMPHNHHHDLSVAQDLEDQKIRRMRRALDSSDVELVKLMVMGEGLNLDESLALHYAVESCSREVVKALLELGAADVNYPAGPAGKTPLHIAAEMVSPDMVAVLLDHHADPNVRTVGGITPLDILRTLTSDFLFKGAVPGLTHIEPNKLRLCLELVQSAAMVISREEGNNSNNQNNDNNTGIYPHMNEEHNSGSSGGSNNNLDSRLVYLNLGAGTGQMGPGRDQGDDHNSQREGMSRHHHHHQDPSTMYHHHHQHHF

B1: His-MBP-BOP2 (protein)
chain: T2 sequence (looked up)
Q: Does B1 bind (His-GST-PIF4)?
A: binds

B2: His-GST-PIF4 (natural protein, Arabidopsis thaliana, UniProt Q8W2F3 1-430, looked up)
chain: T1 chain
notes: also called glutathione S-transferase (GST) tagged PIF4; source: Escherichia coli BL21, purified (Ni-NTA Agarose)
Q: Does B2 bind (His-MBP-BOP2)?
A: binds
